The text below walks through data of patent US20230346960A1.

No end group written: not given here.

This assay deals with collagen IV/laminin (2% reduced growth factor Matrigel, Corning #354230). The experiment in a line: plate binding assay, biotinylated molecule on Matrigel-coated plate, streptavidin-HRP, absorbance 450 nm.

B1: DS-SILY4 (biotinylated; dermatan sulfate backbone with 4 SILY peptide substitutions per DS) (peptide)
peptide: RRANAALKAGELYKSILYGSG
modifications: not fully specified (C-terminus); also: about 4 peptides per dermatan sulfate, one equivalent N-terminally biotinylated SILY-hydrazide also conjugated
Molecule B1 showed a binding capacity of 1.1 AU.
